Reference: the RNAGym collection of RNA variant scans (doi:10.1073/pnas.2313332121)

B1: TPR t1 (parent)
chain: GACCAAUCUGCCCUCAGAGCUCGAGAACAUCUUCGGAUGCAGAGGAGGCAGGCUUCGGUGGCGCGAUAGCGCCAACGUCCUCAACCUCCAAUGCAUCCCACCACAUGAUGAUGCCUGAAGAGCCUUGGUUUUUUG

Variants of: B1
Assay: polymerase ribozyme fitness, log enrichment relative to wild type (log ratio); higher = more active; in vitro selection for triplet polymerase activity
Outline: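 Fitness is a logarithmic measure of how a genotype enriched relative to the wild type, with replicate averages weighted by inverse variance. The logarithm uses base 2, and enrichment came from Illumina sequencing of input and output libraries. Those libraries were PCR-built, transcribed mutants of each subunit of a heterodimeric triplet polymerase ribozyme, passed through one triplicate in vitro selection round that included frozen incubation at −7 °C, gel excision of extended constructs and streptavidin-bead capture. Genotypes were kept only if they had ≥10 input reads and ≥1 read per output.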

| Variant | polymerase ribozyme fitness (log ratio) |
| --- | --- |
| GACCAAUCUGCCCUCAGAGCUCGAGAACAUCUUCGGAUGCAGAGGAGGCAGGCUUCGGUGGCCCGAUAGCGCCAACGUCCUCAACCACCAAUGCAUCCCACCACAUGAUGAUGCCUGAAGAGCCUUGGUUUUUUG [G63C U87A] | -1.59 |
| GACCAAUCUGCCCUCAGAGCUCGAGAACAUCUUCGGAUGCAGAGGAGGCAGGCUUCGGUGGCCCGAUAGCGCCAACGUCCUCAACCCCCAAUGCAUCCCACCACAUGAUGAUGCCUGAAGAGCCUUGGUUUUUUG [G63C U87C] | -0.645 |
| GACCAAUCUGCCCUCAGAGCUCGAGAACAUCUUCGGAUGCAGAGGAGGCAGGCUUCGGUGGCUCGAUAGGGCCAACGUCCUCAACCUCAUAUGCAUCCCUCCACAUGAUGAUGCCUGAAGGGCCUUGGUUUUUUG [G63U C70G C89A A90U A100U A121G] | -2.02 |
| GACCAAUCUGCCCUCAGAGCUCGAGAACAUCUUCGGAUGCAGAGGAGGCAGGCUUCGGUGGCUCGAUAGCGCCAACGUCCUCGACCUCCAAUGCAUCCCACCACAUGAUGAUGCCUGAAGAGCCUUGGUUUUUUG [G63U A83G] | -1.76 |
| GACCAAUCUGCCCUCAGAGCUCGAGAACAUCUUCGGAUGCAGAGGAGGCAGGCUUCGGUGGCUCGAUAGCGCCAACGUCCUUAACCUCCAAUGCAUCCCACCACAUGAUGAUGCCUGAAGAGCCUUGGUUUUUUG [G63U C82U] | -1.76 |
| GACCAAUCUGCCCUCAGAGCUCGAGAACAUCUUCGGAUGCAGAGGAGGCAGGCUUCGGUGGCUCGAUAGCGCCAACGUCCUAAACCUCCAAUGCAUCCCACCACAUGAUGAUGCCUGAAGAGCCUUGGUUUUUUG [G63U C82A] | -0.955 |
| GACCAAUCUGCCCUCAGAGCUCGAGAACAUCUUCGGAUGCAGAGGAGGCAGGCUUCGGUGGCUCGAUAGCGCCAACGUCCUCAAACUCCAAUGCAUCCCACCACAUGAUGAUGCCUGAAGAGCCUUGGUUUUUUG [G63U C85A] | -3.39 |
| GACCAAUCUGCCCUCAGAGCUCGAGAACAUCUUCGGAUGCAGAGGAGGCAGGCUUCGGUGGCUCGAUAGCGCCAACGUCCUAAACCUCCAAUGCAUCCCACCACAUGAUGAUGCCUGAAGAGCCUAGGUUUUUUG [G63U C82A U126A] | -3.13 |
| GACCAAUCUGCCCUCAGAGCUCGAGAACAUCUUCGGAUGCAGAGGAGGCAGGCUUCGGUGGCCCGAUAGCGCCAACGUCCUCAACCACCAAUGCAUCCCUCCACAUGAUGAUGCCUGAAGAGCCUUCGUUUUUUG [G63C U87A A100U G127C] | -2.77 |
| GACCAAUCUGCCCUCAGAGCUCGAGAACAUCUUCGGAUGCAGAGGAGGCAGGCUUCGGUGGCCCGAUAGCGCCAACGUCCUCAACCUCCAAUGCAACCCACCACAUGAUGAUGCCUGAAGAGCCUUGGUUUUUUG [G63C U96A] | -2.05 |
| GACCAAUCUGCCCUCAGAGCUCGAGAACAUCUUCGGAUGCAGAGGAGGCAGGCUUCGGUGGCCCGAUAGCGCCAACGUCCCCAACCUCCUAUGCAUCCCACCACAUGAUGAUGCCUGAAGAGCCUUGGUUUUUUG [G63C U81C A90U] | -3.06 |
| GACCAAUCUGCCCUCAGAGCUCGAGAACAUCUUCGGAUGCAGAGGAGGCAGGCUUCGGUGGCCCGAUAGCGCCAACGUCCCCAACCUCCAAUGCAUCCCACCACAUGAUGAUGCCUGAAGAGCCUUGGUUUUUUG [G63C U81C] | -0.941 |
| GACCAAUCUGCCCUCAGAGCUCGAGAACAUCUUCGGAUGCAGAGGAGGCAGGCUUCGGUGGCUCGAUAGCGCCAACGUCAUCAACCUCCAAUGCAUCCCACCACAUGAUGAUGCCUGAAGAGCCUUGGUUUUUUG [G63U C80A] | -4.88 |
| GACCAAUCUGCCCUCAGAGCUCGAGAACAUCUUCGGAUGCAGAGGAGGCAGGCUUCGGUGGCUCGAUAGCGUCAACGUCCUGAACCUCCAAUGCAUCCCACCACAUGAUGAUCCCUGAAGAGCCUUGGUUUUUUG [G63U C72U C82G G113C] | -4.22 |
| GACCAAUCUGCCCUCAGAGCUCGAGAACAUCUUCGGAUGCAGAGGAGGCAGGCUUCGGUGGCUCGAUCGCGCCAACGUCCUCAACCUCCAAUGCAUCCCACCACAUGAUGAUGCCUGAAGGGCCUUGGUUUUUUG [G63U A68C A121G] | -5.43 |
| GACCAAUCUGCCCUCAGAGCUCGAGAACAUCUUCGGAUGCAGAGGAGGCAGGCUUCGGUGGCUCGAUAGCGCCAACGUCCUCAACCUCCACUGCAUCCCACCACAUGAUGAUGCCUGAAGAGCCUUGGUUUUUUG [G63U A91C] | -3.19 |
| GACCAAUCUGCCCUCAGAGCUCGAGAACAUCUUCGGAUGCAGAGGAGGCAGGCUUCGGUGGCUCGAUAGCGCCAACGUACUCAACCUCCAAUGCAUCCCACCACAUGAUUAUGCCUGAAGAGCCUUGGUUUUUUG [G63U C79A G110U] | -5.14 |
| GACCAAUCUGCCCUCAGAGCUCGAGAACAUCUUCGGAUGCAGAGGAGGCAGGCUUCGGUGGCCCGAUAGCGCCAACGUCCUCAACCUCCAAAGCAUCUCACCACAUGAUGAUGCCUGAAGAGCCUUGGUUUUUUG [G63C U92A C98U] | -5.26 |
| GACCAAUCUGCCCUCAGAGCUCGAGAACAUCUUCGGAUGCAGAGGAGGCAGGCUUCGGUGGCUCGAUAGCGCCAACGUCCUCAACCUCCAAUGCAUCCCACCACUUGAUGAUGCCUGAAGAGCCUUGGUUUUUUG [G63U A105U] | -3.37 |
| GACCAAUCUGCCCUCAGAGCUCGAGAACAUCUUCGGAUGCAGAGGAGGCAGGCUUCGGUGGCUCGAUAGCGCCUACAUCCUCAACCUCCAAUGCAUCCCACCACAUGAUGAUGCCUGAAGAGCCUUGGUUUUUUG [G63U A74U G77A] | -5.16 |
| GACCAAUCUGCCCUCAGAGCUCGAGAACAUCUUCGGAUGCAGAGGAGGCAGGCUUCGGUGGCUCGAUAGCGCAAACGUCCUCAACCUCCAAUGCAUUCCACCACAUGAUGAUGCCUGAAGAGCCUUGGUUUUUUG [G63U C73A C97U] | -4.28 |
